Data: the Human Domainome abundance scans (Beltran et al. 2025)
± gives the uncertainty stated by the source.

B1: POU domain, class 3, transcription factor 1, residues 247 to 324; numbered along this chain, Q03052 (parent)
chain: EDAPSSDDLEQFAKQFKQRRIKLGFTQADVGLALGTLYGNVFSQTTICRFEALQLSFKNMCKLKPLLNKWLEETDSSS

Variants of: B1
Test: abundance fitness (aPCA) (normalised: wild type 0, dead -1); higher = more abundant; growth selection in yeast, the domain comes from the species named
Settings: Homo sapiens

Abundance fitness, by site and new letter:
L67: I -0.321 ± 0.16, S -0.829 ± 0.12, F -0.698 ± 0.18, D -0.167 ± 0.13, C -0.427 ± 0.12, N -0.553 ± 0.28, M -0.084 ± 0.077, Q -1.2 ± 0.3, A -0.562 ± 0.1, R -0.716 ± 0.075, T -0.711 ± 0.16, W -0.81 ± 0.1, E -0.951 ± 0.16
S56: H -0.724 ± 0.26, Y -0.745 ± 0.23, K -0.309 ± 0.092, F -0.719 ± 0.26, A -0.472 ± 0.071, C -0.439 ± 0.1, Q -0.577 ± 0.12, V -0.945 ± 0.13, I -0.717 ± 0.48, L -0.88 ± 0.12, T -0.287 ± 0.077, D 0.031 ± 0.088, R -0.501 ± 0.065, P 0.09 ± 0.073, G -0.198 ± 0.046, M -0.818 ± 0.19, E -0.31 ± 0.072
C61: L -0.048 ± 0.05, P -0.988 ± 0.21, S -0.212 ± 0.058, M -0.036 ± 0.064, R -0.065 ± 0.043, W -0.148 ± 0.057, E -0.078 ± 0.062, T -0.384 ± 0.083, A -0.001 ± 0.049, V 0.045 ± 0.044, F -0.538 ± 0.14, Y -0.164 ± 0.16, D -0.96 ± 0.25, H -0.357 ± 0.16, K -0.043 ± 0.095, I -0.134 ± 0.1, Q 0.017 ± 0.07, N -0.24 ± 0.17
I47: M -0.69 ± 0.16, P -0.661 ± 0.17, A -0.765 ± 0.12, C -0.294 ± 0.22, Q -0.954 ± 0.33, D -1.24 ± 0.39, R -0.555 ± 0.076, G -0.751 ± 0.091, L -0.304 ± 0.073, S -0.736 ± 0.14, W -0.408 ± 0.093, T -0.883 ± 0.2, V -0.228 ± 0.06, E -1.12 ± 0.23, H -0.944 ± 0.38
C48: Q 0.064 ± 0.078, N -0.21 ± 0.17, F 0.068 ± 0.1, S 0.144 ± 0.051, L -0.04 ± 0.057, I 0.094 ± 0.11, H -0.021 ± 0.11, E 0.174 ± 0.058, T -0.086 ± 0.074, A 0.129 ± 0.051, D 0.307 ± 0.11, Y -0.312 ± 0.15, K -0.011 ± 0.085, V -0.151 ± 0.057, W -0.37 ± 0.082, G 0.032 ± 0.043, P -0.175 ± 0.088
N59: D 0.193 ± 0.063, L -0.074 ± 0.056, I -0.197 ± 0.23, A 0.08 ± 0.049, F -0.62 ± 0.22, R -0.017 ± 0.045, H 0.096 ± 0.1, T -0.128 ± 0.087, C -0.198 ± 0.088, S -0.084 ± 0.059, K 0.042 ± 0.074, V -0.031 ± 0.047, E 0.132 ± 0.063, W -0.223 ± 0.055, G -0.04 ± 0.04, M 0.04 ± 0.064, Q -0.025 ± 0.075
K62: N 0.06 ± 0.18, F -0.278 ± 0.15, D -0.268 ± 0.22, M -0.075 ± 0.081, T -0.058 ± 0.083, Y 0.035 ± 0.17, Q -0.184 ± 0.082, C -0.224 ± 0.093, R -0.15 ± 0.053, H 0.03 ± 0.12, W -0.449 ± 0.1, L -0.119 ± 0.061, E -0.095 ± 0.074, P -0.882 ± 0.21, G -0.365 ± 0.06
L63: F -0.148 ± 0.12, D -0.297 ± 0.17, P -0.769 ± 0.17, Y -0.368 ± 0.14, K -0.887 ± 0.31, M -0.11 ± 0.093, T -0.582 ± 0.15, V -0.315 ± 0.062, W -0.605 ± 0.092, C -0.736 ± 0.17, E -0.436 ± 0.13, R -0.766 ± 0.093, G -0.643 ± 0.069, S -0.791 ± 0.13, N -0.117 ± 0.32
T46: Y -0.037 ± 0.2, S -0.191 ± 0.079, R -0.509 ± 0.079, V -0.096 ± 0.066
P65: F -0.175 ± 0.14, M -0.332 ± 0.1, A -0.241 ± 0.06, W -0.389 ± 0.073, V -0.113 ± 0.05, L -0.284 ± 0.066, T -0.246 ± 0.083, Y -0.158 ± 0.11, G -0.167 ± 0.043, E -0.193 ± 0.072, K -0.156 ± 0.12, N -0.266 ± 0.16, H -0.173 ± 0.13, Q -0.451 ± 0.14, S -0.179 ± 0.064, R -0.205 ± 0.051, C -0.139 ± 0.099, D -0.053 ± 0.083
N68: A 0.029 ± 0.051
E51: L -1.08 ± 0.19, H -0.98 ± 0.29, I -0.818 ± 0.17, G -0.251 ± 0.16, A -0.65 ± 0.13, Y -0.899 ± 0.19, D -0.381 ± 0.17, K -0.414 ± 0.14, P -0.781 ± 0.14, F -0.756 ± 0.17, Q -0.686 ± 0.23, R -0.501 ± 0.13, V -0.525 ± 0.13, T -0.668 ± 0.14, N -0.461 ± 0.13, M -0.503 ± 0.28, S -0.723 ± 0.12
